Measurements as given in the nanobody polyreactivity screen of Harvey et al. (2022).

Test: yeast display, Sf9 membrane polyspecificity reagent, FACS + sequencing; frameworks hold sequencing errors
Method in brief: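 Nanobodies from a synthetic yeast display library (Saccharomyces cerevisiae BJ5465), induced 36–48 hours with galactose, were stained 1 hour at 4 °C with 10% biotinylated, detergent-solubilized Sf9 membrane reagent, enriched on streptavidin microbeads, then FACS-sorted. Anti-HA (expression) and streptavidin (reagent binding) fluorescence set low and high (top ~1%) gates. Polyreactivity labels come from the gate of origin. Genes were colony-PCR amplified, MiSeq 2 × 250 sequenced and filtered by CDR length.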

Row | Sequence | polyreactivity (PSR sort gate)
1 | QVQLVESGGGLVQAGGSLRLSCAASGIIFKWYGMGGYRQAPGKERELVAGITWRTGSTYYADSVKGRFTISRDNAKNTVYLQMNSLKPEDTAVYYCAARLYTYPKGKYWGQGTQVTVSS | high polyreactivity
2 | QVQLVESGGGLVQAGGSLRLSCAASGIIFLDNAMVWYRQAPGKERELVAAITTGGITYYADSVKGRFTISRDNAKNTVYLQMNSLKPEDTAVYYCAADNEWPRYDYWGQGTQVTVSS | low polyreactivity
3 | QVQLVESGGGLVQAGGSLRLSCAASGIIFLENAMGWYRQAPGKERELVAGISSGGNTNYADSVKGRFTISRDNAKNTVYLQMNSLKPEDTAVYYCNTDWYLPRYVLLGYFSGTEDYWGQGTQVTVSS | low polyreactivity
4 | QVQLVESGGGLVQAGGSLRLSCAASGIIFLNYAMGWYRQAPGKERELVAAITTSGGNTYYADSVKGRFTISRDNAKNTVYLQMNSLKPEDTAVYYCAATDLYFWYPYWFAFEYDYWGQGTQVTVSS | high polyreactivity
5 | QVQLVESGGGLVQAGGSLRLSCAASGIIFLWYAMGWYRQAPGKERELVAAISRTGSSTYYADSVKGRFTISRDNAKNTVYLQMNSLKPEDTAVYYCAAAYYSKRSWRFDYWGQGTQVTVSS | high polyreactivity
6 | QVQLVESGGGLVQAGGSLRLSCAASGIIFLYYAMGWYRQAPGKERELVAAISSGGSTYYADSVKGRFTISRDNAKNTFYLQLNSLKPEDTAVYYCAVGRVGRFYYWGQGTQVSVSS | high polyreactivity
7 | QVQLVESGGGLVQAGGSLRLSCAASGIIFNGNTMGWYRQAPGKERELVAAITSGGTTSYADSVKGRFTISRDNAKNTVYLQMNSLKPADTAVYYCAADHPAFGPGYSFDYWGQGTQVTVSS | low polyreactivity
8 | QVQLVESGGGLVQAGGSLRLSCAASGIIFNSYAMGWYRQAPGKERELVATISGSGGSTYYADSVKGRFTISRDNAKNTVYFQMNSLKPEDTAVYSCAARTGRYYRRYDYWGQGTQVTVSS | high polyreactivity
9 | QVQLVESGGGLVQAGGSLRLSCAASGIIFNYYAMGWYRQAPGKERELVAAISASGGSTYYADSVKGRFTISRDNAKNTVYLQMNSLKPEDTAVYYCNAAVLYRQYGRGDYWGQGTQVTVSS | low polyreactivity
10 | QVQLVESGGGLVQAGGSLRLSCAASGIIFNYYAMGWYRQAPGKERELVAAISFSGGRTYYADSVKGRFTISRDNAKNTVYLQMNCLKPEDTAVYYCNAVYRNSILAFPGEYDYWGQGTQVTVSS | high polyreactivity
11 | QVQLVESGGGLVQAGGSLRLSCAASGIIFPAYAMGWYRQEPGKDRELVAAISKRGGSTYYADSVKGRFTISRDNAKNTVYLQMNSLKPEDTAVYYCNVLLTQGATVGEYGYWGQGTQVTVSS | high polyreactivity
12 | QVQLVESGGGLVQAGGSLRLSCAASGIIFPEYDRGWYRQAPGKERELVAAITKSDGRTYYADSVKGRFTISRDNAKNTVYLQMNSLKPEDTAVYYCNADPRVVAYLGFDSWGQGTQVTVSS | low polyreactivity
13 | QVQLVESGGGLVQAGGSLRLSCAASGIIFPFYMGWYRQAPGKEREFVADITYSGGSTYYADSVKGRFTISRDNAKNTVYLQMNSLKPEDTAVYYCAAKFYWRGQSFRSGNFYWGQGTQVTVSS | high polyreactivity
14 | QVQLVESGGGLVQAGGSLRLSCAASGIIFPGNAMGWNSQAPGKVRELVAAITSSDGSTYYADSVKGRFTISRDNAKNTVYVQMNSLKPEDTALYYCAADFKGLFSSELDYWGQGTQVTVSS | low polyreactivity
15 | QVQLVESGGGLVQAGGSLRLSCAASGIIFPGYAMGWYRQAPGKERELVAAISSGGDTYYADSVKGRFTISRDNAKNTVYLQMNSLKPEDTAVYYCAAEYGLYAPGYYYWGQGTQVTVSS | low polyreactivity
16 | QVQLVESGGGLVQAGGSLRLSCAASGIIFPGYAMGWYRQAPGKVRELVAAISSGGDTYYADSVKGLFTISRDNAKNTVYLQMNSLNPEDTAVYYCTAAQLSSDRTSTYGYWGQGTKVTVSS | low polyreactivity
17 | QVQLVESGGGLVQAGGSLRLSCAASGIIFPYNAMGWYRQAPGKERELVAAITYRDGSTYYADSVKGRFTISRDNAKNTVYLQMNSLKPEDTAVYYCAADRYVYWDLYGYWGQGTQVTVSS | low polyreactivity
18 | QVQLVESGGGLVQAGGSLRLSCAASGIIFPYYAMGWYRQAPGKERELVAAIDWSGTSTYYADSVKGRFTISRDNAKNTVYLQMNSLKPEDTAVYYCAADYPQAGLLYYYWGQGTQVTVSS | low polyreactivity
19 | QVQLVESGGGLVQAGGSLRLSCAASGIIFPYYTMGWYRQAPGKERELVAAISTSGGSTYYADSVKGRFTISRDNAKNTVYLQMNSLKPEDTAVYFCAAELSYDYSHDYWGQGTQVTVSS | high polyreactivity
20 | QVQLVESGGGLVQAGGSLRLSCAASGIIFQGNAMGWYRQAPGKERELVAAISSGGSTYYADSVKGRFTISRDNAKNTVYLQMNSLKPEDTAVYYCNAGAYVRYDYWGQGTQVTVSS | low polyreactivity
21 | QVQLVESGGGLVQAGGSLRLSCAASGIIFQRNAMGWYRQAPGKERELVAAISASGGSTNYADSVKGRFTISRDNAKNTVYLQMNSLKPEDTAVYYCAVPARGTFLLRDGGRAEFDYWGQGTQVTVSS | low polyreactivity
22 | QVQLVESGGGLVQAGGSLRLSCAASGIIFQRNAMGWYRQAPGQERELVAAISSGGRTYYADSVKGRFTISRDNAKNTVYLQMNSLKPEDTAVYYCNAASYSRGRARYDYWGQGTQVTVSS | high polyreactivity

Row | Sequence | polyreactivity (PSR sort gate)
23 | QVQLVESGGGLVQAGGSLRLSCAASGIIFQYNAMGWYRQAPGKEREFVAAISYGGTSTYYADSVKGRFTISRDNAKNTVYLQMNSLKPEDTAVYYCAADYQGYTPSDGRYYWGQGTQVTVSS | low polyreactivity
24 | QVQLVESGGGLVQAGGSLRLSCAASGIIFQYYAMGWYRQAPGKERELVAAISWSGGSTYYADSVKGRFTISRDNAKNTVYLQMNRLKPEDTAVYYCAARSRSYWPYEGDYWGQGTQVTVSS | low polyreactivity
25 | QVQLVESGGGLVQAGGSLRLSCAASGIIFQYYAMGWYRQAPGKERELVAAISWSGGSTYYADSVKGRFTISRDNAKNTVYLQMNSLKPEDTAVYYCAARSRSYWPYEGDYWGQGTQVTVSS | low polyreactivity
26 | QVQLVESGGGLVQAGGSLRLSCAASGIIFQYYVMGWYRQAPGKERELVAAIDKSGGSTYYADSVKGRFTISRDNAKNTVYLQMNSLKPEDTAVYYCAATSYAHKYYGYFGAIKYEYWGQGTQVTVSS | low polyreactivity
27 | QVQLVESGGGLVQAGGSLRLSCAASGIIFQYYVMGWYRQAPGKERELVAAIDKSGGSTYYADSVKGRFTISRDNAKNTVYLQMNSLKPEDTAVYYCNRDRGWTRFYVYSTGAWLYDYWGQGTQVTVSS | low polyreactivity
28 | QVQLVESGGGLVQAGGSLRLSCAASGIIFRAYAMGWYRQAPGKERELVAAITSRGGSTYYADSVKGRFTISLDNAKNTVYLQKNSLKPEDTAVYYCAADFTIPYWDANFDYWGQGTQVTVSS | low polyreactivity
29 | QVQLVESGGGLVQAGGSLRLSCAASGIIFRDYAMGWYRQAPGKERELVAAINLDGTSTYYADSVKGRFTISRDNAKKTVYLQMNSLKPEDTAVYYCAAEYDNADYINYFLDMYYWGQGTQVTVSS | low polyreactivity
30 | QVQLVESGGGLVQAGGSLRLSCAASGIIFRGYFMGWYRQATGKERELVAAISTSGGRTSYADSVKGRFTISRDNAKNTVYLQMNSLKPEDTAVYYCAARPLYSYSHWGYGYWGQGTQVTVSS | high polyreactivity
31 | QVQLVESGGGLVQAGGSLRLSCAASGIIFRGYVMGWYRQAPGKERELVADISRGGSTYYADSVKGRFTISRDNAKNTVYLQMNSQKPEDTAVYYCAKDYYACYWEMDYWGQGTQVTVSS | low polyreactivity
32 | QVQLVESGGGLVQAGGSLRLSCAASGIIFRLYAMGWYRQAPGTERELVAAISRRGDSTYYADSVKGRFTISRDNAKNTGYVQMNSLKPEDTAVYYCAAVYVPYYWLGRSRGLDYWGQGTQVSVSS | high polyreactivity
33 | QVQLVESGGGLVQAGGSLRLSCAASGIIFRPYAMGWYRQAPGKERELVAAITGSGVSTYYADSVKGRFTISRDNAKNTVYLQMNSLKPEDTAVYYCAKRYNRGYHRYDYWGQGTHVTVSS | low polyreactivity
34 | QVQLVESGGGLVQAGGSLRLSCAASGIIFRQYAMGWSRQEPGKERELVAGITGTGSTYYADSVKGRFTISRDNAKNTVYLQLNSLKPEETAVYYCATRSFRVFYPYPYDYWGQGTQVTVSS | high polyreactivity
35 | QVQLVESGGGLVQAGGSLRLSCAASGIIFRRYAMGWYRQGPGKERELVAAITHRGSTYYADSVKGRFTISRDNAKNTVYLQMNSLKPEDTAVYYCAADGFTRWGRYDYWGQGTQVTVSS | high polyreactivity
36 | QVQLVESGGGLVQAGGSLRLSCAASGIIFRRYARGWYRQAPGKERELVAAITSGGDTNYADSVKGRFTISRDNAKNTVYLQMNSLKPEDTAVYYSNAGLRGVRRYGFDYWGQGTQVTVSS | high polyreactivity
37 | QVQLVESGGGLVQAGGSLRLSCAASGIIFRTYAMGWYRQAPGKERELVAAISGTTGSKYYADSVKGRFTISRDNAKNTVYLQMNSLKPEDTAVYYCAADFYWYIRYDYWGQGTQVTVSS | low polyreactivity
38 | QVQLVESGGGLVQAGGSLRLSCAASGIIFRVYAMGWYRQAPGKERELVAAITKGGGRTYYADSVKGRFTISRDIAKNTVYLQMNCLIPEDTAVYYCAARSSSRFEYWGQGTEVTVSS | high polyreactivity
39 | QVQLVESGGGLVQAGGSLRLSCAASGIIFRWYTMGWFRQAPGKERELVAAITGRGGSTYYADSVKGRFTISRDNAKNTFYLQMNSLIPEDTAVYYCAAEGVRIGTRYDYWGQGTLVTVSS | high polyreactivity
40 | QVQLVESGGGLVQAGGSLRLSCAASGIIFRWYTMGWYRQAPGKERELVAAISSGGSTYYADSVKGRFTISRDNAKNTVYLQMNSLKPEDTAVYYCAARYITTYAYGYWGQGTQVTVSS | high polyreactivity
41 | QVQLVESGGGLVQAGGSLRLSCAASGIIFRWYTMGWYRQAPGKERELVAAISTSTGSTYYADSVKGRFTISRDNAKNTVYLQMNSLKPEDTAVYYCAADYAYWNYESYYWGQGTQVTVSS | high polyreactivity
42 | QVQLVESGGGLVQAGGSLRLSCAASGIIFRYAMGWYRQAPGKERELVARITVGSTYYADSVKGRFTISRDNAKNTVYLQMNSLKPEDTAVYYCAARVQHYLATDDYWGQGTQVTVSS | low polyreactivity
43 | QVQLVESGGGLVQAGGSLRLSCAASGIIFRYYAMGWYRQAPGKERELVAAISSSTGNTYYADSVKGRFTISRDNAKNTVYLQMNSLKPEDTAVYYCAARTRQISIVGYNYWGQGTQVTVSS | high polyreactivity
